# According to the DeepSol protein solubility set:
# Test: soluble on expression in E. coli; label from the status in PepcDB or PDB records
row,Sequence,soluble on expression in E. coli
1,MSWTVDIPKEALPDLPPLPDGLQQQFENVIARDAKQQPSWDKATAETVRKILESVPPIVVAPEVRELKQHLADVANGRAFLLQGGDCAETFESNTEPHIRANIKTLLQMAVVLTYGASTPVVKMARIAGQYAKPRSSDLDANGLPNYRGDIVNGVEATEEARRHDPARMIRAYANSSAASNLVRALTSSGTADLHRLTGWNREFVASSPAGARYEALAQEIERGLRFMSACGVNDHTLHSADIFCSHEALVVDYERAMLRLAEDEEGNVELYDLSAHQLWIGERTRGLDDFHVNFAAMIANPIGIKIGPTATPEEVVAYANKLDPNFVPGRLTIVARMGHDKVRDVLPGIVKAVEESGHKVIWQSDPMHGNTFTSSNGYKTRHFDKVIDEVQGFFEVHRALGTHPGGIHIEFTGENVTECLGGAEDITDVDLPGRYESACDPRLNTQQSLELSFLVAEMLRN,not soluble
2,MSWVQLAGHTGSFKAAGTSGLILKRCSEPERYCLARLMADALRGCVPAFHGVVERDGESYLQLQDLLDGFDGPCVLDCKMGVRTYLEEELTKARERPKLRKDMYKKMLAVDPEAPTEEEHAQRAVTKPRYMQWREGISSSTTLGFRIEGIKKADGSCSTDFKTTRSREQVLRVFEEFVQGDEEVLRRYLNRLQQIRDTLEVSEFFRRHEVIGSSLLFVHDHCHRAGVWLIDFGKTTPLPDGQILDHRRPWEEGNREDGYLLGLDNLIGILASLAER,soluble
3,MSYNSIRLPQDLPIYYKNFFPVKPFTKWLCYGQNYGDYFNRREFTFILADDVHIRYRSYNDEHSFVKALSSTNPEKLDIGAVYNHEPINNKRYTDYQAVERELVFDIDLTDYDPVRNCCKDATVCPKCWKFMVLAVRILDFQLEEMFNFKARMWVFSGRRGVHCWVGDKKARMLNNNQRSAIATRLNLFKKNGQCEVTEGRAKLTRVPPTVRDAFNVALKDGVFEKMIYEQGWLDNDRFIIDYQYMSEFGRDDLRRISESFKTPQERWHMLRGLFDNDYRKTLSQNDGLLDFVNNARSRPKKVLLYFVLQRCYPRLDANVTTGTNHLLKSPFCIHPKTGNVAVPLNVEKIGEFDVSKCPRIDHVVEELSSLLTERGNDGDEDSKNRKFLAYKHGALSPYVENFEMFVSACIS,not soluble
4,MSYSPSLKEIIAILQKYTSKNYQSNCKTRPDGKLELSLNGVFEEIVKTPGKTRYVTHKQLDQKLKDFKQDLMVELHDTFATKTDLKESEARINQKLEALIQIVMVQGEQIKVHGEQINKLTQAVEKQGEKIEAQGQQIQKVNETLNFVVESLGSIHKRLDSMEGRLDSMENRLDKLESK,soluble
5,MSYSWKKILIKPESTVVDALRVIDNEALRIALVVNDEQQLLGVVTDGDIRRGLLNNLPLETPVVDIMSRSPITASVNTAKEQLVKLMESKSILAVPLMEENKVVGLETLHHLFEEKTYHNPVFIMAGGFGTRLRPLTDTCPKPMLKIGNKPILETVIRSFIKAGFVNFYISTHYMPEQIQNHFGDGSELGVKISYVHEDSPLGTGGALGLLPDDLPQDLPLIMMNGDVLTKVDFERLLDFHTENQADATMCVREYDYQIPYGVINGKGNKITSMVEKPIQRFFVNAGIYVVSPSVIQSVPKNHHIDMPTLLEQHMNERDNILMFPIHEYWLDIGRMDDFNRAQADIHTLGLDLEHHHHHH,not soluble
6,MSYTKEQLMLAFSYMSYYGITHTGSAKKNAELILKKMKEALKTWKPFQEDDWEVVWGPAVYTMPFTIFNDAMMYVIQKKGAEGEYVIAIRGTNPVSISDWLFNDFMVSAMKKWPYASVEGRILKISESTSYGLKTLQKLKPKSHIPGENKTILQFLNEKIGPEGKAKICVTGHSKGGALSSTLALWLKDIQGVKLSQNIDISTIPFAGPTAGNADFADYFDDCLGDQCTRIANSLDIVPYAWNTNSLKKLKSIYISEQASVKPLLYQRALIRAMIAETKGKKYKQIKAETPPLEGNINPILIEYLVQAAYQHVVGYPELMGMMDDIPLTDIFEDAIAGLLHHHHHH,soluble
7,MTAALHIGHLSKSFQNTPVLNDISLSLDPGEILFIIGASGCGKTTLLRCLAGFEQPDSGEISLSGKTIFSKNTNLPVRERRLGYLVQEGVLFPHLTVYRNIAYGLGNGKGRTAQERQRIEAMLELTGISELAGRYPHELSGGQQQRAALARALAPDPELILLDEPFSALDEQLRRQIREDMIAALRANGKSAVFVSHDREEALQYADRIAVMKQGRILQTASPHELYRQPADLDAALFIGEGIVFPAALNADGTADCRLGRLPVQSGAPAGTRGTLLIRPEQYSLHPHSAPAASIHAVVLKTTPKARHTEISLRAGQTVLTLNLPSAPTLSDGISAVLHLDGPALFFPGNTLEHHHHHH,soluble
8,MTAKTEDNLKEYTRSQVEQHCTHDDLWLLFRDKVYNMTPYFNQHPGGLAILRYAGKDVTTVLPFVVSHGIAWKIVEQKLQEHLIGKLKE,not soluble
9,MTALTWTDERVEQLKKLWEGGLSASQIAAELGNVTRNAVIGKVHRLGLSGRAKSPTSAAPRPRKARPVQQMMRVTRPVARGNTALAHAFEVEAEPDPIAFDNVVPMNQRLSLLELNEATCHWPVGDPSSPEFFFCGGKSLPGLPYCAHHSRIAYQPVGDRRRAAPKTTRLEHHHHHH,soluble
10,MTAMDHQFPSWIVVNESTSISREQLNYLLETYNVFYENQKNLHILYGQTEDGQLIVEGMLDIFWGVKRPIQLKIQDEKQISSFDLLNTPETFSSKGRMTRWGEFDDLYRISELDRTHVLASEARHSPEDYLSYHSTLTPYADEEPESPLLYRTMSEAESPLLYRTMSEAALVRKRMRAPEMYRKDRMGVLSNHRASINGHVYDHETSIFTPTFGSETKVRANSIMRTEEVIKQLLQKFKIENSPRDFALYIIFGTGEQRKLKKTDVPLLQRLLQGPSKSNARIFLMDKDAEEISRDVAPYINFHFSFLESILQRLDEEEKMEIERIMAKFNTERAFILKCLQSKQAAKTETTV,soluble
11,MTATQITGVVLAAGRSNRLGTPKQLLPYRDTTVLGATLDVARQAGFDQLILTLGGAASAVRAAMALDGTDVVVVEDVERGCAASLRVALARVHPRATGIVLMLGDQPQVAPATLRRIIDVGPATEIMVCRYADGVGHPFWFSRTVFGELARLHGDKGVWKLVHSGRHPVRELAVDGCVPLDVDTWDDYRRLLESVPS,not soluble
12,MTATWSVNKKIFLQNAITVKNNQPLMAVVKNNAYHYDLEFAVTQFIHAGIDTFSTTSLREAIQIRQLAPDATIFLMNAVYEFDLVREHQIHMTLPSLTYYYNHKNDLAGIHVHLEFENLLHRSGFKDLNEIKEVLKDHHHNQNAKMIISGLWTHFGYADEFDVSDYNVERSQWMEIVEALLSEGYQFDLIHAQNSASFYREGQILLPHHTHARVGIALYGSRPYSSLNQHDIVQSLTLKAHVIQVREVQAGDYCGYSFAFEVTKNNTKLAVVDIGYGDGILRTRAKHEALINGKRYPIRALMMSHMFVEVDGNVHAQDEVILYNNDIRIDEYTFKGVGANSEQLSAMNHDSLKKEYISNDC,not soluble
13,MTCWLRGVTATFGRPAEWPGYLSHLCGRSAAMDLGPMRKSYRGDREAFEETHLTSLDPVKQFAAWFEEAVQCPDIGEANAMCLATCTRDGKPSARMLLLKGFGKDGFRFFTNFESRKGKELDSNPFASLVFYWEPLNRQVRVEGPVKKLPEEEAECYFHSRPKSSQIGAVVSHQSSVIPDREYLRKKNEELEQLYQDQEVPKPKSWGGYVLYPQVMEFWQGQTNRLHDRIVFRRGLPTGDSPLGPMTHRGEEDWLYERLAP,soluble
14,MTDEERIELQQNNPLHGLKLETMLQELVDFYGWDILDTAMRFNCFNTKPSIASSVKYLKKTEWAREKLENFYLYRFKRMPRASEEEYNLPPRARTFPHGLEPKEPMPLTVDSILNSQAKAASSFKKRSSRGRPTRRLEHHHHHH,soluble
15,MTDIKMIALGGVREYGKNFYLVEINDSMFILDAGLKYPENEQLGVDLVIPNLDYVIENKGKVQGIFLSHGHADAIGALPYLLAEVSAPVFGSELTIELAKLFVKSNNSTKKFNNFHVVDSDTEIEFKDGLVSFFRTTHSIPESMGIVIGTDKGNIIYTGDFKFDQAAREGYQTDLLRLAEIGKEGVLALLSDSVNATSNDQIASESEVGEEMDSVISDADGRVIVAAVASNLVRIQQVFDSATAHGRRVVLTGTDAENIVRTALRLEKLMITDERLLIKPKDMSKFEDHELIILEAGRMGEPINSLQKMAAGRHRYVQIKEGDLVYIVTTPSTAKEAMVARVENLIYKAGGSVKLITQNLRVSGHANGRDLQLLMNLLKPQYLFPVQGEYRDLAAHAKLAEEVGIFPENIHILKRGDIMVLNDEGFLHEGGVPASDVMIDGNAIGDVGNIVLRDRKVLSEDGIFIVAITVSKKEKRIISKAKVNTRGFVYVKKSHDILRESAELVNTTVGNYLKKDTFDWGELKGNVRDDLSKFLFEQTKRRPAILPVVMEVR,not soluble
16,MTDLHPVKEETFNITAMNNIDPKGFHRDVDTYSETEFGLYMARGANHPRFGYLESWLLPEINLRANIFHFRDGIDEHQDFYFDIAEISHDGHTWHTRDLYVDLISVVGEPVRVDDTDELAAATSAGLITAEDAEKAIDATLLAVDGITRHNDDPMAWLAAMGYPLTWAKNITLKEAE,soluble
17,MTDLTGILYIVATPIGNLQDITQRALETFAQVDLIAAEDTRHSGLLLSHYGIKKPFFALHDHNEQEKAHILVEKLKQGSNIALISDAGTPLISDPGFHLVRQCREAGIRVVPLPGACAAITALCASGIASDRFCFEGFLPAKSKARKDKLENIAEEDRTLIFYESTHRILDTLEDMQAVLGEERYIVLAREMTKTWETITGNTIKNLREWLLEDPNRTKGEMVLIVEGKPKSDNNDEISPQAVKALELIAEELPLKKAAAIVAELYGYKKNALYQFGLAHLEKLEHHHHHH,soluble
18,MTDQPDVQRVQTASRDNSTVIDLREYKTNKDPLPVTFHRRELDAILRIYGRMVGEGEWRDYAIDHLKEKAVFSVFKRSGEMPLYRIEKNPKLATKQGAYCVVNVDGRILKRGHELPQVLKVFDKVLKLIE,not soluble
19,MTDRLSILVPIRVLEGESVPEGVPELLAHAHVVLLGYHVIPEQTAPGQARMQFEDRATERLDEYQEMFEDAGATVERRLVFTHNGQKTIDRMIAEHDCMAVLVPNATGPVEDVLVPVRGAIGVDRLARVVASVFGEMDADVTLYHVADEDTTDDDIQTLLGGLADRLAEFGMDPSTIETRIDRDQNPLDAIVDVSDGFDTVVMGETDPSLATFVFGMPADQVANRFLGPVFVAQRERPSADEDE,not soluble
20,MTDYDVLRVFCAPNGGYGNELGVVRDGSVLPEPERRQELAAKLGFSETVFVDDPERGVVDIYTPTLRLPFAGHPCVGTAWLLDVPELVTRAGVVGARLDGEFSWIEARPEWAPPRTLRQYAAVAEVDDLAVPPKGEWVYAWAWEDEAAGRVRARAFPGRDDGIDEDEATGAAALLLTGRLGRALNITQGVGSQILTAPQPEGWVEIGGRVRLERLEHHHHHH,not soluble
21,MTEAMKITLSTQPADARWGEKATYSINNDGITLHLNGADDLGLIQRAARKIDGLGIKHVQLSGEGWDADRCWAFWQGYKAPKGTRKVVWPDLDDAQRQELDNRLMIIDWVRDTINAPAEELGPSQLAQRAVDLISNVAGDRVTYRITKGEDLREQGYMGLHTVGRGSERSPVLLALDYNPTGDKEAPVYACLVGKGITFDSGGYSIKQTAFMDSMKSDMGGAATVTGALAFAITRGLNKRVKLFLCCADNLISGNAFKLGDIITYRNGKKVEVMNTDAEGRLVLADGLIDASAQKPEMIIDAATLTGAAKTALGNDYHALFSFDDALAGRLLASAAQENEPFWRLPLAEFHRSQLPSNFAELNNTGSAAYPAGASTAAGFLSHFVENYQQGWLHIDCSATYRKAPVEQWSAGATGLGVRTIANLLTA,soluble
